Experimental data: ChEMBL document CHEMBL2073968, “Multidrug resistance protein 4 (MRP4/ABCC4) mediates efflux of bimane-glutathione” (Int J Biochem Cell Biol, 2004)

Substrate: [H][C@@]12CC=C3C[C@@H](OS(=O)(=O)O)CC[C@]3(C)[C@@]1([H])CC[C@]1(C)C(=O)CC[C@@]21[H]
Test: TP_TRANSPORTER: uptake in membrane vesicles from MRP1-expressing Sf9 cells
Assay type: functional, cell membranes, Membrane vesicle

B1: Multidrug resistance-associated protein 1 (Homo sapiens) (protein)
chain: MALRGFCSADGSDPLWDWNVTWNTSNPDFTKCFQNTVLVWVPCFYLWACFPFYFLYLSRHDRGYIQMTPLNKTKTALGFLLWIVCWADLFYSFWERSRGIFLAPVFLVSPTLLGITMLLATFLIQLERRKGVQSSGIMLTFWLVALVCALAILRSKIMTALKEDAQVDLFRDITFYVYFSLLLIQLVLSCFSDRSPLFSETIHDPNPCPESSASFLSRITFWWITGLIVRGYRQPLEGSDLWSLNKEDTSEQVVPVLVKNWKKECAKTRKQPVKVVYSSKDPAQPKESSKVDANEEVEALIVKSPQKEWNPSLFKVLYKTFGPYFLMSFFFKAIHDLMMFSGPQILKLLIKFVNDTKAPDWQGYFYTVLLFVTACLQTLVLHQYFHICFVSGMRIKTAVIGAVYRKALVITNSARKSSTVGEIVNLMSVDAQRFMDLATYINMIWSAPLQVILALYLLWLNLGPSVLAGVAVMVLMVPVNAVMAMKTKTYQVAHMKSKDNRIKLMNEILNGIKVLKLYAWELAFKDKVLAIRQEELKVLKKSAYLSAVGTFTWVCTPFLVALCTFAVYVTIDENNILDAQTAFVSLALFNILRFPLNILPMVISSIVQASVSLKRLRIFLSHEELEPDSIERRPVKDGGGTNSITVRNATFTWARSDPPTLNGITFSIPEGALVAVVGQVGCGKSSLLSALLAEMDKVEGHVAIKGSVAYVPQQAWIQNDSLRENILFGCQLEEPYYRSVIQACALLPDLEILPSGDRTEIGEKGVNLSGGQKQRVSLARAVYSNADIYLFDDPLSAVDAHVGKHIFENVIGPKGMLKNKTRILVTHSMSYLPQVDVIIVMSGGKISEMGSYQELLARDGAFAEFLRTYASTEQEQDAEENGVTGVSGPGKEAKQMENGMLVTDSAGKQLQRQLSSSSSYSGDISRHHNSTAELQKAEAKKEETWKLMEADKAQTGQVKLSVYWDYMKAIGLFISFLSIFLFMCNHVSALASNYWLSLWTDDPIVNGTQEHTKVRLSVYGALGISQGIAVFGYSMAVSIGGILASRCLHVDLLHSILRSPMSFFERTPSGNLVNRFSKELDTVDSMIPEVIKMFMGSLFNVIGACIVILLATPIAAIIIPPLGLIYFFVQRFYVASSRQLKRLESVSRSPVYSHFNETLLGVSVIRAFEEQERFIHQSDLKVDENQKAYYPSIVANRWLAVRLECVGNCIVLFAALFAVISRHSLSAGLVGLSVSYSLQVTTYLNWLVRMSSEMETNIVAVERLKEYSETEKEAPWQIQETAPPSSWPQVGRVEFRNYCLRYREDLDFVLRHINVTINGGEKVGIVGRTGAGKSSLTLGLFRINESAEGEIIIDGINIAKIGLHDLRFKITIIPQDPVLFSGSLRMNLDPFSQYSDEEVWTSLELAHLKDFVSALPDKLDHECAEGGENLSVGQRQLVCLARALLRKTKILVLDEATAAVDLETDDLIQSTIRTQFEDCTVLTIAHRLNTIMDYTRVIVLDKGEIQEYGAPSDLLQQRGLFYSMAKDAGLV
B1 was tested, and the Km was 5 µM.
